The source of these data is publication PMC7579878, “Unannotated single nucleotide polymorphisms in the TATA box of erythropoiesis genes show in vitro positive involvements in cognitive and mental disorders”.

Sequences and labels used below:
B1: EPOR TATA-like WT (ODN 5) (dsDNA)
DNA 1: CACGTCATCTATTTTTGTCTGCTACG
DNA 2: CGTAGCAGACAAAAATAGATGACGTG
B2: EPOR rs567946217:G (-31C>G, ODN 9) (dsDNA)
DNA 1: CACGTCATGTATTTTTGTCTGCTACG
DNA 2: CGTAGCAGACAAAAATACATGACGTG
B3: EPOR rs1006576690:A (-27T>A, ODN 6) (dsDNA)
DNA 1: CACGTCATCTATATTTGTCTGCTACG
DNA 2: CGTAGCAGACAAATATAGATGACGTG
B4: HBZ rs113180943:A (-29T>A, ODN 4) (dsDNA)
DNA 1: AGCTCCCTGTAAATAAGGGGACCCTG
DNA 2: CAGGGTCCCCTTATTTACAGGGAGCT
B5: HBZ TATA WT (ODN 3) (dsDNA)
DNA 1: AGCTCCCTGTATATAAGGGGACCCTG
DNA 2: CAGGGTCCCCTTATATACAGGGAGCT
B6: HBB TATA WT (ODN 1, -32C) (dsDNA)
DNA 1: AGGGCTGGGCATAAAAGTCAGGGCAG
DNA 2: CTGCCCTGACTTTTATGCCCAGCCCT
B7: HBB rs34500389:T (-32C>T, ODN 2) (dsDNA)
DNA 1: AGGGCTGGGTATAAAAGTCAGGGCAG
DNA 2: CTGCCCTGACTTTTATACCCAGCCCT
B8: EPOR rs971717705:G (-29A>G, ODN 7) (dsDNA)
DNA 1: CACGTCATCTGTTTTTGTCTGCTACG
DNA 2: CGTAGCAGACAAAAACAGATGACGTG

For this data set, the target named is TATA-binding protein (hTBP) (Homo sapiens, UniProt P20226 1-339). The experiment in a line: EMSA (kinetic, kd/ka); EMSA with 32P-labelled 26 bp duplexes; binding buffer, salt, pH and temperature not given in the material. The settings on record: protein: recombinant; label: 32P (both strands); blunt.
TATA-binding protein (hTBP), sequence (P20226 whole entry): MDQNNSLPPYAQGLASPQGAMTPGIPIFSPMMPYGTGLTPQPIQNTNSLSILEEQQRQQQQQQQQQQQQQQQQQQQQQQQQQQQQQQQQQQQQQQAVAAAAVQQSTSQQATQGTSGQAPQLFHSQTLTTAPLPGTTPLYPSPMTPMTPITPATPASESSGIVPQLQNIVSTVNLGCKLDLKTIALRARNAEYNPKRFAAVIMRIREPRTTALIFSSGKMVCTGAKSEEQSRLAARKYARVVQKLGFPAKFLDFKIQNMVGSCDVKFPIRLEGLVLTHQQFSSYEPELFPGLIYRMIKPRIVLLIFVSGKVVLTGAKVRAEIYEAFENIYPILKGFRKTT
As to B1, the Kd amounted to 170 ± 30 nM.
Turning to B2, the Kd came out at 80 ± 10 nM.
The figure for B3 is 11 ± 3 nM; for B4 it is 40 ± 20 nM.
As for B5, the equilibrium dissociation constant (Kd) worked out at 6 nM.
As to B6, the Kd is 50 nM.
B7: the Kd came out at 32 ± 3 nM.
In the case of B8, the Kd was determined as 150 ± 30 nM.
